Measured values: article PMC5834517

Key:
[1] = molecular target: Mut FcγRIIIa (engineered, non-glycosylated Fcγ receptor IIIa) (UniProt P08637); assay: SPR; van't Hoff analysis: temperature dependence of KD; Mut FcγRIIIa on the surface, antibody fractions as analyte
[2] = molecular target: WT FcγRIIIa (glycosylated, expressed by HEK293 cells) (UniProt P08637)
[3] = molecular target: Mut FcγRIIIa (non-glycosylated); assay: SPR; Biacore T200; FcγRIIIa (WT or Mut) captured on a Ni2+-loaded NTA sensor chip at 350 RU; Rituximab fractions injected as analyte at 30 μL/min; PBS with 0.005% Tween-20; global fit, 1:1 Langmuir model; KD = koff/kon

Substance | dH [1] [kJ/mol] | EC50 of FcγRIIIa activation (NFAT-driven luciferase in Jurkat/FcγRIIIa/NFAT-Luc cells with Daudi cells; corresponds to ADCC) [2] [mg/L] | Kd [3] [µM]
Rituximab fraction Peak 2 of the FcγRIIIa column (antibody) | -55.6 | 0.19 | –
Rituximab, peak 1 of the FcγRIIIa-immobilized column (antibody) | – | – | 1.49
Rituximab, peak 3 of the FcγRIIIa-immobilized column (antibody) | – | – | 0.701
Rituximab fraction Peak 3 of the FcγRIIIa column (antibody) | -54.8 | 0.05 | –
Rituximab, peak 2 of the FcγRIIIa-immobilized column (antibody) | – | – | 1.01
Rituximab fraction Peak 1 of the FcγRIIIa column (antibody) | -55.6 | 0.2 | –
Rituximab (Roche), before separation (antibody) | – | 0.13 | –
